The source of these data is paper PMC11624264, “Phosphorylation of P-stalk proteins defines the ribosomal state for interaction with auxiliary protein factors” (EMBO Reports, 2024).

Values joined by “and” are separate entries in the source; they are usually repeats but may differ in a detail not shown here. Identical values can stand only once.

For orientation: Kd means the equilibrium constant for the complex coming apart. Lower therefore signals tighter binding.

For experiment [1], the target named is P-stalk of 80S ribosomes from the SDPM yeast mutant strain (S to A mutations within all P-stalk proteins at the C-termini) (S. cerevisiae) (UniProt P05317).
Experiment [2] concerns the target native (phosphorylated) yeast pentameric P-stalk complex ΔuL10(199-312)-(P1A–P2B)-(P1B–P2A) (S. cerevisiae) (UniProt P05317).
The target of another experiment is T1, eIF5B (UniProt P39730 1-1002).
T1 construct: translation initiation factor eIF5B; also called trGTPase eIF5B; source: purified as previously described (Blanchet and Ranjan, 2022)
T1 sequence (looked up): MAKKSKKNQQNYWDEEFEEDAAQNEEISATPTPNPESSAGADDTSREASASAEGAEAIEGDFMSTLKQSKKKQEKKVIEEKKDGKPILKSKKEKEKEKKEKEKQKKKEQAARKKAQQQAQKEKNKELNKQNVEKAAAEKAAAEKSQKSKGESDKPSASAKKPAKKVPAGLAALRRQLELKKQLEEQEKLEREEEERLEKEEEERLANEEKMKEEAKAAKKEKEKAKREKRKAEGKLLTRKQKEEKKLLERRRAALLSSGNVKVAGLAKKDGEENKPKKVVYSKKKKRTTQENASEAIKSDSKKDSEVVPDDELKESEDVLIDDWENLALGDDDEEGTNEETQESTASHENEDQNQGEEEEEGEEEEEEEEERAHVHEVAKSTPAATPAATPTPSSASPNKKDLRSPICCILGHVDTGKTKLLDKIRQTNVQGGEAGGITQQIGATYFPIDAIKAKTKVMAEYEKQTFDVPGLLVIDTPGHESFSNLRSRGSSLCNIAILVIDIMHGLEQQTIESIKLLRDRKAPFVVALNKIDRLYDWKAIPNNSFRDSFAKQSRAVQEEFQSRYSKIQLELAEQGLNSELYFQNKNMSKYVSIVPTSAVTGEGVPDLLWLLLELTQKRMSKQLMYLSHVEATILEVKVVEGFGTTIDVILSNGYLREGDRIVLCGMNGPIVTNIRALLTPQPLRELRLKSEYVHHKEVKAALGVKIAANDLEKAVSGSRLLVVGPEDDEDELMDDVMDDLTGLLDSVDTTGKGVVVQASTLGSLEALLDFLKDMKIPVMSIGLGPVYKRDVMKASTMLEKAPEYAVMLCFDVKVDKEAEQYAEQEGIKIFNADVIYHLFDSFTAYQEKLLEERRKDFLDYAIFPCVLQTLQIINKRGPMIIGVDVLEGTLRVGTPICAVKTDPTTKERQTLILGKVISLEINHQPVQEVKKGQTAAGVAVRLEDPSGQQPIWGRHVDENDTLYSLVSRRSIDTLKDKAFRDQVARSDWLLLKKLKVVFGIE
Put plainly: MST; P-stalk complex labelled with RED-tris-NTA on its His tag, 5 nM, titrated with unlabelled eIF5B (dilution series from 1.48 μM); PBS with 0.05% Tween-20 and 1 mg/ml BSA; 25 °C; Monolith NT.115 Pico. The conditions noted are these: both partners purified.

For experiment [3], the target named is P-stalk of 80S ribosomes from the SDPM yeast mutant strain (S to A mutations within all P-stalk proteins at the C-termini) (S. cerevisiae), P05317.
Experiment [4] has as its target native (phosphorylated) yeast pentameric P-stalk complex ΔuL10(199-312)-(P1A–P2B)-(P1B–P2A) (S. cerevisiae), P05317. In words: MST; P-stalk complex labelled with RED-tris-NTA on its His tag, 5 nM, titrated with unlabelled eIF5B (dilution series from 1.48 μM); PBS with 0.05% Tween-20 and 1 mg/ml BSA; 25 °C; Monolith NT.115 Pico.

The molecule “eEF2 (from UniProt P32324 1-842) (enzyme)” gave a GTPase activity of eEF2 (0.05 µM, 10 µM GTP) with 0.2 µM 80S ribosomes from the SDPM strain (S to A, dephospho-mimicking P-stalk on the ribosome): average GTPase rate in experiment [1] of 0.044 min⁻¹. The molecule also showed a GTPase activity of eEF2 (0.05 µM, 10 µM GTP) with 0.2 µM 80S ribosomes from the WT strain (phosphorylated P-stalk on the ribosome): average GTPase rate in experiment [2] of 0.019 min⁻¹.

In the case of “eEF1A (from UniProt P02994 1-458) (enzyme)”, in experiment [1], the GTPase activity of eEF1A (0.05 µM, 10 µM GTP) with 0.2 µM 80S ribosomes from the SDPM strain (S to A, dephospho-mimicking P-stalk on the ribosome): average GTPase rate is 0.019 min⁻¹. The GTPase activity of eEF1A (0.05 µM, 10 µM GTP) with 0.2 µM 80S ribosomes from the WT strain (phosphorylated P-stalk on the ribosome): average GTPase rate in experiment [2] was 0.008 min⁻¹.

B1: AP-treated (dephosphorylated) yeast pentameric P-stalk complex ΔuL10(199-312)-(P1A–P2B)-(P1B–P2A) (complex, S. cerevisiae)
chain 1: SSILDITDEELVSHFVSAVSTIASISLAIGYPTLPSVGHTLINNYKDLLAVAIAASYHYPEIEDLVDRIENPEKYAAAAPAATSAASGDAAPAEEAAAEEEEESDDDMGFGLFD
chain 2: MSTESALSYAALILADSEIEISSEKLLTLTNAANVPVENIWADIFAKALDGQNLKDLLVNFSAGAAAPAGVAGGVAGGEAGEAEAEKEEEEAKEESDDDMGFGLFD
chain 3: MKYLAAYLLLVQGGNAAPSAADIKAVVESVGAEVDEARINELLSSLEGKGSLEEIIAEGQKKFATVPTGGASSAAAGAAGAAAGGDAAEEEKEEEAKEESDDDMGFGLFD
chain 4: MSDSIISFAAFILADAGLEITSDNLLTITKAAGANVDNVWADVYAKALEGKDLKEILSGFHNAGPVAGAGAASGAAAAGGDAAAEEEKEEEAAEESDDDMGFGLFD
chain 5: MKYLAAYLLLNAAGNTPDATKIKAILESVGIEIEDEKVSSVLSALEGKSVDELITEGNEKLAAVPAAGPASAGGAAAASGDAAAEEEKEEEAAEESDDDMGFGLFD
notes: ribosomal P-stalk protein P1A, S. cerevisiae; ribosomal P-stalk protein P2B, S. cerevisiae; ribosomal P-stalk protein P1B, S. cerevisiae; ribosomal P-stalk protein P2A, S. cerevisiae; For MST the complex was labelled with RED-tris-NTA on the His tag; also called dephospho P-stalk; dephospho-P-stalk complex; copies: + + + +
For the molecule B1, the Kd with eIF5B is 4.6 µM and 4.5 µM.

B2: eIF5B, P39730 1-1002 (enzyme)
chain: T1 sequence (looked up)
Molecule B2 showed a GTPase activity of eIF5B (0.05 µM, 10 µM GTP) with 0.2 µM 80S ribosomes from the SDPM strain (S to A, dephospho-mimicking P-stalk on the ribosome): average GTPase rate in experiment [3] of 0.02 min⁻¹. The Kd in experiment [4] worked out at 11.2 µM.
